Molecular target: the molecule itself
Experiment: […] (25 mM HEPES pH 8, 300 mM NaCl, 10% glycerol, 1 mM TCEP); […]; 20 °C; […]

B1: HCoV-229E nsp15 protein, wild type (recombinant, hexameric) (enzyme)
chain: GLENIAFNVVNKGSFVGADGELPVAISGDKVFVRDGNTDNLVFVNKTSLPTNIAFELFAKRKVGLTPPLSILKNLGVVATYKFVLWDYEAERPLTSFTKSVCGYTDFAEDVCTCYDNSIQGSYERFTLSTNAVLFSATAVKTGGKSLPAIKLNFGMLNGNAIATVKSEDGNIKNINWFVYVRKDGKPVDHYDGFYTQGRNLQDFLPRSTMEEDFLNMDIGVFIQKYGLEDFNFEHVVYGDVSKTTLGGLHLLISQVRLSKMGILKAEEFVAASDITLKCCTVTYLNDPSSKTVCTYMDLLLDDFVSVLKSLDLTVVSKVHEVIIDNKPWRWMLWCKDNAVATFYPQLQ
notes: source: T7 Express E. coli, purified (Ni-NTA, SEC)
stoichiometry N: 6

From publication PMC11856660 (PLOS Pathogens, 2025)
